The values below come from patent US20250388683A1 (VETOQUINOL, published 2025).

Like-named read-outs stand apart in the source and are kept apart here. A value given as a limit tells only on which side of the number the result lay.

The Kd is a measure of binding affinity in units of concentration.

In assay [1] the target is T1, canine IL-31RA expressed on HEK-Blue STAT3 canine IL-31R reporter cells (with canine OSMR) (canine). In words: cell-based or functional assay.
The target in assay [2] is T1, canine IL-31RA expressed on HEK-Blue …. The experiment in a line: cell-based or functional assay. The source holds these as a separate data set.
The target is the same in assay [3]. The experiment in a line: cell-based or functional assay. This is another data set of the same source.
Assay [4] has the same target. In words: cell-based or functional assay. The source holds these as a separate data set.
The target is the same in assay [5]. The experiment in a line: cell-based or functional assay. The source holds these as a separate data set.
For assay [6] the target is unchanged. In words: cell-based or functional assay. This is another data set of the same source.
Assay [7] has the same target. In words: cell-based or functional assay. The source holds these as a separate data set.
The target is the same in assay [8]. The experiment in a line: cell-based or functional assay. The source holds these as a separate data set.
Assay [9] shares this target. In words: cell-based or functional assay. This is another data set of the same source.
Assay [10] has the same target. The experiment in a line: cell-based or functional assay. The source holds these as a separate data set.
The target is the same in assay [11]. In words: cell-based or functional assay. This is another data set of the same source.
The target is the same in assay [12]. In words: cell-based or functional assay. The source holds these as a separate data set.
Assay [13] addresses T2, Recombinant extra cellular domain of canine IL-31 receptor A (cECD-IL-31RA), His-tagged (canine).
T2 construct: also called cIL-31RA; cIL31r
T2 chain: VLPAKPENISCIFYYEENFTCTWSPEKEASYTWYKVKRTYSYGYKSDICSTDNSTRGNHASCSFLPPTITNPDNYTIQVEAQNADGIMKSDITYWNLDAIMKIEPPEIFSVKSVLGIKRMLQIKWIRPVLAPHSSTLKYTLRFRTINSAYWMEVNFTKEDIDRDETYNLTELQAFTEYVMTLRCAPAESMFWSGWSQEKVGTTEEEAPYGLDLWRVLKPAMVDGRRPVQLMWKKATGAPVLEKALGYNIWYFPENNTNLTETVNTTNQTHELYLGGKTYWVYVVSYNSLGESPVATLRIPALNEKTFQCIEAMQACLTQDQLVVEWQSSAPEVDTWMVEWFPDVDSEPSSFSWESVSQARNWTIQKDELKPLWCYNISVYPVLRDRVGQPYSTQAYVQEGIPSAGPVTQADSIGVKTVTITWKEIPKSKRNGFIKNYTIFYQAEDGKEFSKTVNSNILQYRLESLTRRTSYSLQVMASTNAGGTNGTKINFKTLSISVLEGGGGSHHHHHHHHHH
In words: Octet K2 BLI, cIL-31RA loaded on protein A tips, antibody at 15.6, 3.91, 0.98 nM, 1:1 Langmuir local fit. On the procedure: (§1) Binding of the purified antibodies to cECD-IL-31RA was analyzed using the Octet system (BLI technology, Fortebio). Octet K2 instrument was used to measure the binding kinetics of either canine IL-31RA (cIL-31RA) or human IL31RA (hIL-31RA) to 8DE and 3F1 antibodies. cIL-31RA (see example 1) or hIL31R proteins (Acrobiosystem, Cat:ILA-H5256) were attached to the surface of the protein A (fortéBio, Part No: 18-5013) sensor tip (5 ug/ml, 200 ul, 120 sec). […] Then, the antibodies were allowed to dissociate for 600 seconds. All the dilutions were made in PBS-Tween (0.05%) solution. The measurement was corrected for baseline drift by subtracting a control sensor exposed to running buffer (PBS-Tween, 0.05%) only. Data analysis and curve fitting were carried out using the own software (local fitting, 1:1 Langmuir model) of the device.
(BLI is a label-free optical method that tracks binding on a fibre tip over time.)

The target of assay [14] is T1, canine IL-31RA expressed on HEK-Blue …. The experiment in a line: cell-based or functional assay. The source holds these as a separate data set.
Assay [15] deals with T3, human IL31RA protein (Acrobiosystem, Cat:ILA-H5256) (human, UniProt Q8NI17 20-519, limits assumed).
T3 construct: Bought; loaded on protein A sensor tips; also called hIL-31RA; hIL31R
T3 sequence (looked up): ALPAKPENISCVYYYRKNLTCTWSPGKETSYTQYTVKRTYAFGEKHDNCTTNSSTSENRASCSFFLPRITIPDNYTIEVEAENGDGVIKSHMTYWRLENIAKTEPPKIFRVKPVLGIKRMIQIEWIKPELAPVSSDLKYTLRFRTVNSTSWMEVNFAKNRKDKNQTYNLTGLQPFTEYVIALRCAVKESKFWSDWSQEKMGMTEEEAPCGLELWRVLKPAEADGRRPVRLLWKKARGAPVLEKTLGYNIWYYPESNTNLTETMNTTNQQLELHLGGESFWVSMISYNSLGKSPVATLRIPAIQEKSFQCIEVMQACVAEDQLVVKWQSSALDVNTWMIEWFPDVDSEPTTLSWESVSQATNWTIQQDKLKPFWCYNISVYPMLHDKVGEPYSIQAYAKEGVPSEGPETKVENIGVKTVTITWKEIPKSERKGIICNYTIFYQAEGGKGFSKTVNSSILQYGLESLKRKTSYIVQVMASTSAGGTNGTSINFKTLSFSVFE
In words: Octet K2 BLI, receptor loaded on protein A tips, antibody in solution. Here is the method:
as §1

B1: scFv-VTQ2101-LH-Fc (scFv-VTQ2101-LH-GS18-Canine IgG2B-LALAPG-Fc) (Fc fusion)
scFv: RIVMTQSPGSLAGSVGESVSINCKSSQSVTNDLTWYQQKPGEAPKVLITYASQRYTGVPARFSGSGYGTDFTLTINNLQAEDVGDYFCQQDYASPFTFGQGTKLEIKGSTSGGGSGGGSGGGGSSEVTLQESGPGLVKPSQTLSLTCVASGFSIKSSFIHWLRQRPGRGLEWIGRIDPAFGATEYNPAFQGRFSITADTAKNQASLQLSSMTTEDSAVYYCARYHYAASHFDAWGQGTLVTVSSPKRENGRVPRPPDCPKCPAPEAAGGPSVFIFPPKPKDTLLIARTPEVTCVVVDLDPEDPEVQISWFVDGKQMQTAKTQPREEQFNGTYRVVSVLPIGHQDWLKGKQFTCKVNNKALGSPIERTISKARGQAHQPSVYVLPPSREELSKNTVSLTCLIKDFFPPDIDVEWQSNGQQEPESKYRTTPPQLDEDGSYFLYSKLSVDKSRWQRGDTFICAVMHEALHNHYTQESLSHSPG
In the case of B1, the “IC50 (read off the curve); STAT3-SEAP reporter, canine IL-31 stimulation” value (from here on “IC50 (read off the curve)”) in assay [1] was 1 to 10 nM. Besides, in [2], the “IC50 ratio (IC50 candidate/IC50 VTQ2101)” value was determined as 2.2 ratio.

B2: scFv-HLλcap-Fc-VTQ2102 (scFv-VTQ2102-HLλcap-GS18-Canine IgG2B-LALAPG-Fc) (Fc fusion)
scFv: EVTLQESGPGLVKPSQTLSLTCVASGFSIKSSFIHWLRQRPGRGLEWIGRIDPAFGATEYNPAFQGRFSITADTAKNQASLQLSSMTTEDSAVYYCARYHYAASHFDAWGQGTLVTVSSGSTSGGGSGGGSGGGGSSRIVMTQSPGSLAGSVGESVSINCKSSQSVTNDLTWYQQKPGEAPKVLITYASQRYTGVPARFSGSGYGTDFTLTINNLQAEDVGDYFCQQDYASPFTFGGGTKLTVLGPKRENGRVPRPPDCPKCPAPEAAGGPSVFIFPPKPKDTLLIARTPEVTCVVVDLDPEDPEVQISWFVDGKQMQTAKTQPREEQFNGTYRVVSVLPIGHQDWLKGKQFTCKVNNKALGSPIERTISKARGQAHQPSVYVLPPSREELSKNTVSLTCLIKDFFPPDIDVEWQSNGQQEPESKYRTTPPQLDEDGSYFLYSKLSVDKSRWQRGDTFICAVMHEALHNHYTQESLSHSPG
Regarding B2, the “IC50 (read off the curve)” value in assay [3] is approximately 1 nM. In addition, in assay [2], the “IC50 ratio (IC50 candidate/IC50 VTQ2101)” value came to 1.5 ratio.

B3: scFab-Fc-VTQ2101 (scFab-VTQ2101-HLλcap-GS18-Canine IgG2B-LALAPG-Fc) (Fc fusion)
chain: RIVMTQSPGSLAGSVGESVSINCKSSQSVTNDLTWYQQKPGEAPKVLITYASQRYTGVPARFSGSGYGTDFTLTINNLQAEDVGDYFCQQDYASPFTFGQGTKLEIKRNDAQPAVYLFQPSPDQLHTGSASVVCLLNSFYPKDINVKWKVDGVIQDTGIQESVTEQDKDSTYSLSSTLTMSSTEYLSHELYSCEITHKSLPSTLIKSFQRSECGGSSGSGSGSTGTSSSGTGTSAGTTGTSASTSGSGSGGGGGSGGGGSAGGEVTLQESGPGLVKPSQTLSLTCVASGFSIKSSFIHWLRQRPGRGLEWIGRIDPAFGATEYNPAFQGRFSITADTAKNQASLQLSSMTTEDSAVYYCARYHYAASHFDAWGQGTLVTVSSASTTAPSVFPLAPSCGSTSGSTVALACLVSGYFPEPVTVSWNSGSLTSGVHTFPSVLQSSGLYSLSSMVTVPSSRWPSETFTCNVAHPASKTKVDKPVPKRENGRVPRPPDCPKCPAPEAAGGPSVFIFPPKPKDTLLIARTPEVTCVVVDLDPEDPEVQISWFVDGKQMQTAKTQPREEQFNGTYRVVSVLPIGHQDWLKGKQFTCKVNNKALGSPIERTISKARGQAHQPSVYVLPPSREELSKNTVSLTCLIKDFFPPDIDVEWQSNGQQEPESKYRTTPPQLDEDGSYFLYSKLSVDKSRWQRGDTFICAVMHEALHNHYTQESLSHSPG
As for B3, in assay [2], the “IC50 ratio (IC50 candidate/IC50 VTQ2101)” value was 1.3 ratio. Besides, the “IC50 (read off the curve)” value in assay [4] is approximately 0.8 nM.

B4: 8D3-VHL/8D3-VLH caninized antibody (VTQ2101) (antibody, V domains shown)
VH: EVTLQESGPGLVKPSQTLSLTCVASGFSIKSSFIHWLRQRPGRGLEWIGRIDPAFGATEYNPAFQGRFSITADTAKNQASLQLSSMTTEDSAVYYCARYHYAASHFDAWGQGTLVTVSS
VL: RIVMTQSPGSLAGSVGESVSINCKSSQSVTNDLTWYQQKPGEAPKVLITYASQRYTGVPARFSGSGYGTDFTLTINNLQAEDVGDYFCQQDYASPFTFGQGTKLEIK
B4: the “IC50 (read off the curve)” value in assay [5] was approximately 0.6 nM; in [1], approximately 0.6 nM; in assay [3], approximately 0.6 nM; in assay [7], approximately 1 nM; in [8], approximately 0.05 nM; in assay [9], approximately 1 nM. Also, the “IC50 (read off the curve)” value was approximately 0.3 nM in assay [10] and approximately 0.6 nM in assay [4]. Besides, the “IC50 ratio (IC50 candidate/IC50 VTQ2101)” value in assay [6], in [2] and in assay [12] was 1 ratio each time. Also, the “Mean IC50 (nM) (n = 3), HEK-Blue cell-based SEAP assay” value in assay [11] came to 0.33 nM.

B5: 8D3 chimeric canine IgGB antibody (antibody, V domains shown)
VH: EVQLQQSGAELVKPGASVKLSCTASGFNIKDSFIHWLKQRPEQGLEWIGRIDPANGNTEYDPNFQGKDTITADTSSNTAYLQVSSLTSEDTAVYYCARYYYGNSHFDCWGQGTTLTVSS
VL: RIVMNQTPKFLPISAGDRVIITCKASQSVTNDVTWYQQKPGQSPKVLIHYASNRYTGVPDRFTGSGYGTDFTFTISTVQAEDLAVYFCQQDYSSPFTFGSGTKLEIK
notes: also called chimeric 8D3
With B5, the Kd in [13] was less than 0.001 nM. For the same molecule, in assay [14], the “IC50 (read off the curve)” value was approximately 0.5 nM. In addition, the “Mean IC50 (nM) (n = 3), HEK-Blue cell-based SEAP assay” value in assay [11] was determined as 0.43 nM. In addition, the binding result in assay [15] is “no binding”.

B6: scFv-VTQ2101-LHλcap-Fc (scFv-VTQ2101-LHλcap-GS18-Canine IgG2B-LALAPG-Fc) (Fc fusion)
scFv: RIVMTQSPGSLAGSVGESVSINCKSSQSVTNDLTWYQQKPGEAPKVLITYASQRYTGVPARFSGSGYGTDFTLTINNLQAEDVGDYFCQQDYASPFTFGGGTKLTVLGGSTSGGGSGGGSGGGGSSEVTLQESGPGLVKPSQTLSLTCVASGFSIKSSFIHWLRQRPGRGLEWIGRIDPAFGATEYNPAFQGRFSITADTAKNQASLQLSSMTTEDSAVYYCARYHYAASHFDAWGQGTLVTVSSPKRENGRVPRPPDCPKCPAPEAAGGPSVFIFPPKPKDTLLIARTPEVTCVVVDLDPEDPEVQISWFVDGKQMQTAKTQPREEQFNGTYRVVSVLPIGHQDWLKGKQFTCKVNNKALGSPIERTISKARGQAHQPSVYVLPPSREELSKNTVSLTCLIKDFFPPDIDVEWQSNGQQEPESKYRTTPPQLDEDGSYFLYSKLSVDKSRWQRGDTFICAVMHEALHNHYTQESLSHSPG
For B6, in assay [5], the “IC50 (read off the curve)” value is approximately 1 nM. Besides, in assay [2], the “IC50 ratio (IC50 candidate/IC50 VTQ2101)” value stood at 1.7 ratio.
